# Assays:
# [1] = molecular target: T1, US28 of HCMV strain TB40/E on CHO cells (Human cytomegalovirus, UniProt P69332, A8T/D15E/E18L/V24T); assay: FACS binding to CHO cells expressing TB40/E form of US28; conditions: FIG. 21C
# T1 construct: expressed in transfected cells; host or cells: CHO cells
# Source text: The plasmids carrying the DNA for the TB40/E, VHL/E, and Merlin constructs and mutated US28 strain (SEQ ID Nos: 254, 272, 273 and 255, respectively) were also manufactured in the similar manner.
# Flowcytometry was used to analyze cell surface binding by the US28 antibodies. Upon cell harvest, adherent non-infected and US28 overexpressing or HCMV infected cells were washed three times with cell staining buffer (phosphate-buffered saline (PBS (Amresco, Cleveland, 44139, USA) added 0.5% BSA and 0.05% Sodium Azide (NaN3)). The cells were trypisinized and then resuspended in DMEM with 10% FBS to inhibit the action of trypsin. The cells were then pelleted at 400×g for 10 minutes and washed three times in cell staining buffer. Cell viability and cell concentration were measured by tryphan blue viability assay and a cell counter (Countess, Invitrogen, Carlsbad, CA 92008, USA). The cell suspension was adjusted to 1×10^6 cells/mL with ice-cold cell staining buffer. The cells were blocked in 1 ml 10% FBS or 1% BSA in PBS per 1×10^6 cells, vortexed briefly, and incubated for 10-30 minutes to eliminate non-specific staining. The cells were then stained with the respective antibodies and appropriate negative controls. […]
# [2] = molecular target: T2, Peptide-N […] (SEQ ID NO: 177), HCMV US28 ECD1 (Human cytomegalovirus, UniProt P69332); assay: ELISA, binding to Peptide-N (Bio-Peptide-N / Peptide-N-BSA coating)
# T2 construct: Peptide-N was prepared via chemical synthesis: […]; made in house; host or cells: chemical synthesis
# Protocol: Microtiter plate wells were coated with 100 μl of the solution containing: (i) Bio-Peptide-N; or (ii) Bio-Peptide-1 and Bio-Peptide-2; at a concentration of between 1-10 μg/ml in coating buffer, consisting of Na2CO3, 1.5 g and NaHCO3, 2.93 g in 1 L of distilled water in pH 9.6, and then incubated for 1-2 hours at room temperature. The plate was washed 3 times in wash buffer consisting of PBS containing 0.05% v/v Tween-20 and blotted with paper towels thereafter. 150 μl of blocking solution containing Phosphate buffered saline (PBS) containing 1% w/v BSA, was added to each well and the plate was incubated for 2 hours at 37° C. The wells were washed 4 times in wash buffer and blotted on paper towels after the last wash. 100 μl of antibody dilution was added to each well and the plate was incubated for 1 hour at 37° C. and thereafter washed 3 times in wash buffer. 100 μl enzyme-conjugated secondary antibody (appropriately diluted in wash buffer) was added to each well and the plate was incubated for 1 hour at 37° C. The wells were then again washed 3 times in wash buffer and blotted with paper towels after the last wash. […] The absorbance values were read immediately at the appropriate wavelength and the data analyzed by Cmax Plus, Molecular Devices, San Jose, CA 95134, USA,
Molecule,% change in absolute levels of binding between DB and TB40/E forms of US28 [1],"absorbance, Coating: Peptide-N-BSA ([2]; ELISA absorbance, ECD1 subclones)",qualitative ELISA binding to Bio-Peptide-N ([2]; recombinant antibodies)
"13-5G6-1D3: mouse monoclonal IgG1 kappa antibody against US28 ECD3; VH SEQ ID NO: 12, VL SEQ ID NO: 18 (antibody, V domains shown, Mature form of VH sequence of 1D3, without the leader sequence; Mature form of VL sequence of 1D3, without the leader sequence) VH: EVKLVESGGGLVQPGGSLRLACATSGFTFTDYYMSWVRQPPGKALEWLGFIRSKANGYTTEYSASVKGRFTISRDNSQSILYLQMNTLRSEDSATYYCARDERRTAWLAYWGQGTLVTVSA VL: DVLMTQTPLSLPVSLGDQASISCRSSQSIVHSNGNTYLDWYLQKPGQSPKLLIYKVSNRFSGVPDRFSGSGSGTDFTLKISRVEAEDLGVYYCFQGSHVPTWTFGGGTKLEIK",less than 10%,,
"7B1F3: mouse IgG1 kappa antibody against US28 ECD1 Peptide-N; VH SEQ ID NO: 211, VL SEQ ID NO: 213 (antibody, V domains shown, Mature form of VH sequence of 7B1F3, without the leader sequence; Mature form of VL sequence of 7B1F3, without the leader sequence) VH: EVQLQQSGAELAKPGASVKMSCKASGYTFTNYWMHWVKQRPGQGLEWIGYVNPRTGYTEYNQKFKDKATLTADKSSRTAYMQLSSLTSEDSAVYSCARILNGTGFAYWGQGTLVTVSA VL: DIVLTQSPSSLTVSVGEKFTMSCKSSQSLLYSSNQKNYLAWYQQKPGQSPKLLIYWASTRESGVPDRFTGSGSGTDFTLAISSVKPEDLAIYYCQQYYSFPLTFGAGTKLEIK",,2.7989,"equal, strong and high binding affinity"
